Laboratory results: article PMC4383067 (Acta Neuropathologica Communications, 2015)

Experiments:
[1] = biological target: Amyloid fibrils of human PrP Δ100-120 (human, UniProt P04156 23-231, ∆100-120); test: static light scattering kinetics; conditions: both partners purified
[2] = biological target: Amyloid fibrils of human PrP Δ23-99 (human, UniProt P04156 100-231); test: static light scattering kinetics; conditions: both partners purified

B1: Full-length human acetylcholinesterase (dimeric, recombinant) (enzyme)
chain: EGREDAELLVTVRGGRLRGIRLKTPGGPVSAFLGIPFAEPPMGPRRFLPPEPKQPWSGVVDATTFQSVCYQYVDTLYPGFEGTEMWNPNRELSEDCLYLNVWTPYPRPTSPTPVLVWIYGGGFYSGASSLDVYDGRFLVQAERTVLVSMNYRVGAFGFLALPGSREAPGNVGLLDQRLALQWVQENVAAFGGDPTSVTLFGESAGAASVGMHLLSPPSRGLFHRAVLQSGAPNGPWATVGMGEARRRATQLAHLVGCPPGGTGGNDTELVACLRTRPAQVLVNHEWHVLPQESVFRFSFVPVVDGDFLSDTPEALINAGDFHGLQVLVGVVKDEGSYFLVYGAPGFSKDNESLISRAEFLAGVRVGVPQVSDLAAEAVVLHYTDWLHPEDPARLREALSDVVGDHNVVCPVAQLAGRLAAQGARVYAYVFEHRASTLSWPLWMGVPHGYEIEFIFGIPLDPSRNYTAEEKIFAQRLMRYWANFARTGDPNEPRDPKAPQWPPYTAGAQQYVSLDLRPLEVRRGLRAQACAFWNRFLPKLLSATDTLDEAERQWKAEFHRWSSYMVHWKNQFDHYSKQDRCSDL
notes: also called AChE; dimeric AChE
[1]
  stoichiometry N: 0.5
[2]
  stoichiometry N: 0.5
